Test results as given in US20100120700A1, “METHODS AND COMPOSITIONS FOR TREATING CERVICAL CANCER” (priority 2000, published 2010).
Entries after “also recorded” stand apart in the source; their conditions may differ.

T1: HPV16 E6/TIP 1 interaction (Homo sapiens, UniProt O14907)
T1 construct: made in house; host or cells: E. coli
T1 sequence (O14907 14-116): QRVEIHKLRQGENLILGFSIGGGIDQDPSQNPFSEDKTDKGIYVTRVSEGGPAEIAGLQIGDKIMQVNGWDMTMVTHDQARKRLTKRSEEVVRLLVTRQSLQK


Legend:
[1] = test system: c-JUN N-terminal kinase (JNK); experiment: Jun kinase assay in microinjected Xenopus oocytes; assay type: cell-based; set-up: inhibition of HPV16 E6-dependent JNK activation by co-injected peptide: dose or concentration left out as unconfirmed; conditions: Xenopus oocytes; for JNK activation by microinjected E6 fusion protein: MBP-E6 or GST-E6 protein (100 nM, 3h), GST-Jun phosphorylation
Method: Experimental Design: This experiment was divided into two phases. In the first phase, an MBP-E6 fusion protein (HPV16; see example 4) was microinjected into Xenopus oocytes at different concetrations and then the oocytes were assayed for INK activity. In the second phase, peptides corresponding to the C-termini of non-oncogenic E6 protein (HPV11), HPV16 E6 (oncogenic) or Tax (shown to block oncogenic E6 binding to PDZ domains, FIG. 3) were co-injected with an activating amount of MBP-E6 fusion protein to assess ther abilities to block JNK activation.
Isolation and Microinjection of Oocytes—Xenopus ovarian tissue was surgically removed, and oocytes were defolliculated for 1-1.5 h at room temperature with 2 mg/ml collagenase and 0.5 mg/ml polyvinylpyrrolidone in Ca21-free modified Barth's solution (88 mM NaCl, 1 mM KCl, 0.82 mM MgSO4, 2.4 mM NaHCO3, 10 mM HEPES, pH 7.5). The oocytes were then washed four times with modified Barth's solution. Stage VI oocytes were sorted manually and incubated at 16° C. for at least 10 h in OR2 solution (82.5 mM NaCl, 2.5 mM KCl, 1 mM CaCl2, 1 mM Na2HPO4, 5 mM HEPES, pH 7.5) supplemented with 1 mg/ml bovine serum albumin and […] gentamicin. Immature oocytes were microinjected with purified MBP-E6 protein or E6 protein and peptide and transferred to fresh OR2 for the duration of the time course. Five oocytes were collected per time point, frozen on dry ice, and stored at −80° C.
Lysis of Oocytes, Eggs, and Embryos—Frozen oocytes, eggs, and embryos were thawed rapidly and lysed by pipetting up and down in 60 ml of ice-cold extraction buffer (EB) (0.25 M sucrose, 0.1 M NaCl, 2.5 mM MgCl2, 20 mM HEPES, pH 7.2) containing 10 mM EDTA, protease inhibitors (10 mg/ml leupeptin, 10 mg/ml pepstatin, 10 mg/ml aprotinin, 1 mM phenylmethylsulfonyl fluoride), and phosphatase inhibitors (50 mM 2-glycerophosphate, 1 mM sodium orthovanadate, 2 mM microcystin). Samples were clarified by centrifugation for 2.5 min in a Beckman E microcentrifuge with a right angle rotor. Crude cytoplasm was collected and processed for immunoblotting or kinase assays, as described below.
Jun Kinase Assay—Jun kinase assays were performed as described. Crude oocyte, egg, or embryo cytoplasm was diluted 1:1 in EB and pre-cleared with 20 ml of glutathione-Sepharose beads (Amersham Pharmacia Biotech) for 1 h at 4° C. with moderate shaking. Lysates were incubated with glutathione S-transferase GST-c-Jun-(1-79) fusion protein (hereafter denoted GST-Jun) immobilized on glutathione- Sepharose beads. After 3 h at 4° C., the beads were washed three times with 50 mM HEPES, pH 7.5, 150 mM NaCl, 1% Triton X-100, 1 mM EDTA, 10% glycerol, 10 mM sodium pyrophosphate, 2 mM sodium orthovanadate, 10 mM sodium fluoride, 1 mM phenylmethylsulfonyl fluoride, and 10 mg/ml aprotinin (24) and once with 0.4 ml of kinase buffer (20 mM HEPES, pH 7.5, 10 mM MgCl2, 1 mM dithiothreitol, 200 mM sodium orthovanadate). The bound JNK activity was detected by the addition of 1 mCi of [g-32]JATP. The reaction was terminated after 20 min at 30° C., and the products were resolved by SDS-PAGE. The gels were transferred to PVDF membranes (Hybond; Amersham Pharmacia Biotech) and the incorporation of [32P]phosphate into GST-Jun was visualized by autoradiography. […]

[2] = target: T1, HPV16 E6/TIP 1 interaction; experiment: Modified G assay, inhibition of TIP1-HPV E6 16 binding; conditions: HPV E6 16 peptide 10 uM, TIP1 fusion protein 5 ug/mL, Tax peptide 0.001-100 uM, FIG. 3
Method: In one embodiment (in which a G assay is used), one or more PDZ domain-containing GST-fusion proteins are bound to the surface of wells of a 96-well plate as described supra (with appropriate controls including nonfusion GST protein). All fusion proteins are bound in multiple wells so that appropriate controls and statistical analysis can be done. A test compound in BSA/PBS (typically at multiple different concentrations) is added to wells. Immediately thereafter, 30 uL of a detectably labeled (e.g., biotinylated) peptide known to bind to the relevant PDZ domain (see, e.g., TABLE 3) is added in each of the wells at a final concentration of, e.g., between about 2 uM and about 40 uM, typically 5 uM, 15 uM, or 25 uM. […] The surface is washed free of unbound peptide three times with ice cold PBS and the amount of binding of the peptide in the presence and absence of the test compound is determined. Usually, the level of binding is measured for each set of replica wells (e.g. duplicates) by subtracting the mean GST alone background from the mean of the raw measurement of peptide binding in these wells. […]
Protocol • 1. […] Take early readings, if necessary, at 650 nm • 17. At 30 minutes, stop reaction with 100 ul of 0.18M H2SO4, and take final reading at 450 nm […]

Row | Molecule | JNK activation by microinjected E6 fusion protein [1] | inhibition of binding between TIP1 and HPV E6 16 (A450) [2] | inhibition of binding between TIP1 and HPV E6 16 (A450) ([2]; listed as Tax peptide) | inhibition of HPV16 E6-dependent JNK activation by co-injected peptide ([1]; co-injected with activating amount of HPV16 E6 fusion protein) | JNK activation by microinjected E6 fusion protein ([1]; listed as HPV E6 16)
1 | HPV18 E6: recombinant GST-E6 fusion protein of HPV18 microinjected into Xenopus oocytes | activated the JNK MAPK pathway in the oocyte |  |  |  | 
2 | Tax PL peptide: unlabeled peptide corresponding to the C-terminus of Tax, an independent PDZ ligand that binds similar PDZ domains (QISPGGLEPPSEKHFRETEV) |  | decrease binding between TIP1 and HPV E6 16 | Inhibition of the interaction between HPV E6 16 and TIP1 | can be inhibited by co-injection | 
3 | HPV16 E6: recombinant full length HPV16 E6 fusion protein (MBP-E6 or GST-E6) microinjected into Xenopus oocytes (protein) MHQKRTAMFQDPQERPRKLPQLCTELQTTIHDIILECVYCKQQLLRREVYDFAFRDLCIVYRDGNPYAVCDKCLKFYSKISEYRHYCYSLYGTTLEQQYNKPLCDLLIRCINCQKPLCPEEKQRHLDKKQRFHNIRGRWTGRCMSCCRSSRTRRETQL | activates c-JUN N-terminal kinase; also recorded: activated the JNK MAPK pathway in the oocyte |  |  |  | activates c-JUN N-terminal kinase (JNK)
